In US7880021B2, “Compounds and kits for the detection and the quantification of cell apoptosis” (Centre National de la Recherche Scientifique (CNRS), priority 2005, dated 2011):
Numbered stars: 1 amine (or outer) side, 2 acyl side, 3 side chain; on linkers, the order of the positions; unused ones are H or OH. Bridge positions count the residues as written; N and C are the ends. Square brackets hold non-standard residues; d marks the D form. Peptide text beside a SMILES is read from it. I, II: the chains in the order shown. Actinocin(9to1) = Cc1c2oc3c(C)ccc(C(=O)[*:1])c3nc-2c(C(=O)[*:2])c(N)c1=O; NMeV = CN[C@H](C(=O)O)C(C)C; Sar = CNCC(=O)O

Tests used:
[1] = test system: CEM T cells; assay: Determination of hypodiploid DNA with PI by flow cytometry; format: cell-based, human; conditions: actinomycin D 0.5 μg/ml for 18 h; mean±SEM
Method: (§1) Human lymphoid CEM T cells were cultured in X-vivo 15 medium (Cambrex, France) at 37° C. in humidified 5% CO2 atmosphere. Cell viability was checked by trypan blue exclusion. Cells were seeded at 5×10^5 cells/ml in the presence or absence of actinomycin D (0.5 μg/ml) for 18 h. Cells were pelleted by centrifugation at 1500 rpm for 5 min and resuspended at 1×10^6 cells/ml in X-vivo 15 medium for experiments.
To verify the proportion of apoptotic cells, measurements of hypodiploid DNA with PI by flow cytometry have been performed. After apoptotic treatment, cells were harvested and numbered. Concentration in a 70% ethanol solution in H2O was adjusted to 5×10^5 cells/ml and fixation was allowed to proceed for at least 1 h at 4° C. Cells were washed once in Hank's balanced salt solution (HBSS) before resuspension in HBSS containing RNAse (0.5 mg/ml), PI (0.1 mg/ml) and incubation for 15 min at room temperature in the dark. Samples were analysed by flow cytometry using the CELLQuest software (Becton Dickinson, San Jose, Calif.). Under these conditions, the content of hypodiploid DNA in CEM T cells was 30±2% (mean±SEM).

[2] = test system: T lymphoblastoid cells; assay: Flow cytometry analysis with annexin V-FITC, PI and F2N12S; format: cell-based, human
Source text: FIG. 6: Flow cytometry analysis of T lymphoblastoid cells treated by actinomycin D. Cells were stained by annexin V-FITC, PI and F2N12S. In (a), Annexin V-FITC and PI were selectively excited at 488 nm. Cells are sorted into living, dead and apoptotic cell populations. In (b), F2N12S is selectively excited at 407 nm. Living cells are discriminated from apoptotic and necrotic cells. In (c), the PI fluorescence intensities are plotted versus the T*/N* ratio of F2N12S. Living cells are in green, apoptotic cells are in cyan and dead cells are in orange. In (d), the populations sorted using the F2N12S/PI couple were colored according to their response with the annexin V/PI couple. The wavelengths of maximal transmission and bandwidths of used filters are indicated in brackets.
FIG. 7: Comparison of the intensiometric response of annexin V-FITC (a) with the ratiometric fluorescence response of F2N12S (b). Living, dead and apoptotic cells were identified as described in FIG. 6, by using either the annexin V-FITC/PI (a) or the F2N12S/PI (b) couple of dyes.
FIG. 8: Comparison of the response of annexin V-FITC and F2N12S on non-treated T lymphoblastoid cells stained by annexin V-FITC, PI and F2N12S. In (a), annexin V-FITC and PI were selectively excited at 488 nm. In (b), F2N12S is selectively excited at 407 nm. Cells are sorted into living and dead cell populations.
as §1
For the validation of F2N12S in cell cytometry, we used a FASCARIA™ (cell sorter) (BD Biosciences, CA, USA) equipped with an argon laser (488 nm) and a diode laser (407 nm) and emission filters DF30, DF42 and DF20 centered at 530 nm, 585 nm and 610 nm, respectively. The optical pathways corresponding to the argon laser and to the diode laser are independent. Data were analyzed using the FACSDIVA™ (cell sorter) Software (BD Biosciences). The granulation, size and fluorescence intensity were recorded at a rate of ˜1000 cells per second.
T lymphoblastoid cells were treated with actinomycin D and labeled simultaneously by FITC-labeled annexin V, propidium iodide (PI) and F2N12S. […] The emissions of FITC and PI were collected in the spectral regions of 515-545 nm and 600-620 nm, respectively. […] The emission light in this case was collected in two spectral regions: at 515-545 nm to monitor the emission of the N* band and 564-606 nm to collect the emission of the T* band (FIG. 6b). […] The second one is characterized by a high N*/T* intensity ratio (shown in red) and can be assigned to apoptotic and dead cells.
The probe of the invention F2N12S has been combined with PI and the fluorescence intensities of PI have been represented as a function of the T*/N* ratio of F2N12S (FIG. 6c). In this case, the populations of apoptotic and dead cells are clearly discriminated by using the differences in the PI intensities. […] This conclusion was further strengthened when the populations discriminated by the F2N12S/PI couple were colored according to their response with the annexin V-FITC/PI couple (FIG. 6d).

[3] = test system: T lymphocytes; assay: Laser scanning confocal ratiometric imaging of T lymphocytes; format: cell-based
Method: FIG. 9: Laser scanning confocal imaging of T lymphocytes stained with annexin V-FITC (a) and F2N12S (b and c). Combination of transmission and fluorescence images of cells treated with actinomycin D for 18 hours (please complete this sentence). […] Due to their low binding to annexin V, normal cells are not visualized in the fluorescence images. (b and c) Ratiometric images of normal (b) and actinomycin D-treated (c) cells stained with 0.2 μM F2N12S. […] The size of the images is 60×73.1 μm.
FIG. 10: Time-series of confocal fluorescence ratiometric images of actinomycin D-treated T lymphocytes stained with F2N12S. The cells were treated with actinomycin D for 18 hours and then, incubated with the probe (0.2 μM) for 5 min. Images were recorded at 1 min (a), 10 min (b) and 20 min (c) post incubation. […] The size of the images is 60×73.1 μm.
For collecting cell images, a Laser Scanning Confocal Imaging System MRC-1024 (Bio-Rad) was used. Cells in chambered cover glass were prepared by following the preparation procedure described above. The 442 nm line of a HeCd laser was used as the excitation light source. Emission was collected by using two filters: 485/30 for the N* band and 585LP for the T* band. Collected images were analyzed by the Amira 3.0 software.
To further compare F2N12S and annexinV-derived probes, two-color ratiometric images of F2N12S-labeled cells undergoing apoptosis were recorded by laser scanning confocal microscopy and compared with intensity based images obtained using annexin V-FITC. […] Moreover, the fluorescence intensity of apoptotic cells varies considerably from cell to cell. These differences are difficult to interpret since the intensity depends on the probe concentration as well as on the size and confluence of the cells. […] According to our spectroscopy and flow cytometry data, the latter cells are apoptotic. […] Thus, unlike annexin V-FITC, these probes provide an absolute parameter, the intensity ratio, which can be calibrated, and can characterize the level of apoptosis independently of the probe/cell concentration and the excitation light intensity. In addition, the inventors have observed that in normal cells and cells on the initial steps of apoptosis, the T*/N* intensity ratio is not evenly distributed within the plasma membrane of a given cell. This may indicate an inhomogeneous lipid composition of their plasma membranes that is likely related to the presence of lipid domains.
The inventors also follow apoptotic transformation of the plasma membrane as a function of time. Normal and actinomycin D-treated cells were stained with the corresponding probe and the fluorescence images were subsequently recorded during 20 min. […]

[4] = actinomycin D-treated cells, probe combined with PI

| Molecule | content of hypodiploid DNA [1] [%] | percentage of apoptotic cells [2, 4] [%] | percentage of dead cells [2, 4] [%] | percentage of living cells [2, 4] [%] | percentage of dead cells ([2]; non-treated T lymphoblastoid cells) [%] | time-dependent change of the fluorescence images ([3]; actinomycin D-treated cells, images recorded during 20 min) | which cells are stained in fluorescence images ([3]; normal and actinomycin D-treated cells) |
| --- | --- | --- | --- | --- | --- | --- | --- |
| Cc1c2oc3c(C)ccc(C(=O)N[C@@H]4C(=O)N[C@H](C(C)C)C(=O)N5CCC[C@H]5C(=O)N(C)CC(=O)N(C)[C@@H](C(C)C)C(=O)O[C@@H]4C)c3nc-2c(C(=O)N[C@@H]2C(=O)N[C@H](C(C)C)C(=O)N3CCC[C@H]3C(=O)N(C)CC(=O)N(C)[C@@H](C(C)C)C(=O)O[C@@H]2C)c(N)c1=O [actinomycin D, Actinomycin D] (I: T[dV]P[Sar][NMeV] / II: T[dV]P[Sar][NMeV]; ester I:1-I:C, II:1-II:C; linker I:N-II:N via Actinocin(9to1)) | 30±2 |  |  |  |  |  |  |
| annexin V-FITC: Annexin V labelled with fluorescein isothiocyanate, kit from Immunotech; reference apoptosis marker (protein, UniProt P08758 2-320, looked up, FITC label) Annexin A5: AQVLRGTVTDFPGFDERADAETLRKAMKGLGTDEESILTLLTSRSNAQRQEISAAFKTLFGRDLLDDLKSELTGKFEKLIVALMKPSRLYDAYELKHALKGAGTNEKVLTEIIASRTPEELRAIKQVYEEEYGSSLEDDVVGDTSGYYQRMLVVLLQANRDPDAGIDEAQVEQDAQALFQAGELKWGTDEEKFITIFGTRSVSHLRKVFDKYMTISGFQIEETIDRETSGNLEQLLLAVVKSIRSIPAYLAETLYYAMKGAGTDDHTLIRVMVSRSEIDLFNIRKEFRKNFATSLYSMIKGDTSGDYKKALLLLCGEDD |  | 18 | 49 | 33 | 5 | not possible to detect any time-dependent changes | labels only apoptotic and necrotic cells |
